From patent publication US20100129315A1

Target: human MN protein, entire extra-cellular domain with a C-terminal histag, expressed in HKB-11 cells (human) (UniProt Q16790)
Experiment: method not restated (Biacore by context)

- Kd: 5.3 nM
Substance: MN antibody G250, a humanized IgG1 antibody (Wilex)
